test: soluble on expression in E. coli; label from the status in PepcDB or PDB records

Sequence	soluble on expression in E. coli
MGSDKIHHHHHHMLTWRKHGLIYSPQAHPPLIGGAGYAQSPQALVFDDFVRIYFSTRELDDKNNKFISRVSYVDMDKNLQEILKVSAAPVIAHAELGTFDEHGIFPFNVLRHNGAVMAWTTGWNRRVSVSVDTSIGLAISHDGGDTFQRHATGPVMSASLHEPYLVGDAFVQHIEGRFHMWYIYGVGWKRQQSDSPPDRIYKIAHAVSDDGIDWVRESKPIIADLLGDDECQALPTVIKVGNRYHMIFCYRECFDFRLGSGRGYRLGYAWSDDLVTWHRDDTQVPAVSESGEWDSEMQCYPHLFQCDEKVYLLYNGNAFGKEGFGLAELTACSE	not soluble
MALALSLSACSPPLRRTRRAGFRTSCSIFANPAQRAKRKLLELISEEDRGLRTQKDPKKRDEIVNAIESMTVIGRSSITTDDSLSATWRLLWTTEKEQLFIIEKAGLFGTTAGDVLQVIDVNKRILNNVITFPPDGVFFVRSDIDIASPQRVNFRFNSAVLRGKNWELPLPPFGKGWFENVYMDGEIRVAKDIRGDYLIVDRAPYNWTESFV	soluble
MKLNLITVSLATLVAAGAFPAHAGPQAHVVCGYHHTLGDDAIMMFGKANQAMWHDFFGNTHTDAVSTYQTLRAQPDTTCDNKADSSAYWAPSMKLPDGEIVNPAYQKTYYQSTNVAQYPLHPFPAGLELLAGDHHGTGPSSAITFLCANGKGYTNKVGEICGLRKAGDAVQFNIGIAFPNCWDGVNLKPTHSHNNAIYADHGKCSADYPVKIPTVNMNIAWVLPQISSLDTSKVELSMDPVMHGETREERWGSLYTAHADFMNGWTEDGAQFMTDLCMNQGLDCGTTVPYAYSKAEENTWVSSEDDKPHASVDTLYVQDDWTNGGRTQHPETLTLVKFKIPPLPANMDASLFKYRIRLFGGKTEANGADQIFFYPTSSDWHVSTVSWNNKPAINYRSDAVLYLDHSHEYRMVDVDKAVRKALAEGKTEISWYIGGDRQGNHYDFTPADSKQSLVLMLTGFKKTPELLEHHHHHH	not soluble
GSHMSEWKARRFWASVGIHKEEGGWAVLLDERPLRTPGKQPLRLPTEALALAIAEEWQAVQEVIDPNAMPLTRSANSAIEKVAPQFDAVAAMLGDYGGTDLLSYRADAPEALVRAQAEGWDPLIDWAATELRAPLRITHGVIPVPQDPVVLLKLRAEVASLDPFGLTALHDLVTLPGSLILGLAVIRGRIDAPTAHALSRIDEEFQAERWGRDEEAEAQAASRLAAMRDSERFWHLTRG	soluble
MSLKRAVISGGAGGLGRALSDALQTRGWHVTLLDRDISAIEPSETQRVIQCDLTDPGQLAAACALAIGPQGVDLAVYNAGITQIGLFADSDEASHRRVFEINYFAAVNMARAMLGPVRQARGTHLAISSVAGFAPLYSRTSYAASKHALEGFFKSLRSEERAHGVAVQIAAPSFVATNLGNAQAQPDGIARPGSATDGMDYMTPEAAAATILRGLDRGRDMIPVGRVARLAWWINRLSPGLYQRLMESKIGREGHHHHHH	soluble
MSLTRFSVSPGDPMKKFVTLALTLSTLGASVASAQAVRVGMAYDAGGKADKSFNQSAYEGSQLAAKKLGIQVKDFEPSDPSQIIQGVRSFAKEGFDLTIGVGFSNNASITQVAKENPDLYFGLVDDVSTAKNVASLVFNEEQGSYLVGYLAAMNSSTGVVGFIGGMNIPLIHKFEAGYRAGVKAANPKATIISQYVGNTPEAWNNPGKAKEIAANMRGRGADIIFAAAGGSGNGLIDYIKQTPCLNASQLPKGVTFKSDNFKNVKKSAAYAKACTGNTRPMFFIGVDSNQNYLGDFDKNPATLNHGLTSMVKRVDNAVYALINEVKNDKFKAGERRFGLKDGGVAYAVDQYNKALLPAAQIAKVEAVKQQIIKGQIKVPTKEGGSHHHHHH	soluble
MKLIVAVVQDQDSNRLLKTLTDHNFRVTKLATTGGFLKSGNTTFMIGVEDIRVNKALSLIKENGQKRDQMIAPVSPMGGNADSYVPYPVEVEVGGATVFVLPVDEFHQFLEHHHHHH	soluble
MPPAVPAAAATARQSASGRERNFKDKDKPESVRNSNIVAAKAVADAVRTSLGPRGMDKMIQSGNGDVTITNDGATILNQMSVIHPTAKMLVELSKAQDIEAGDGTTTVVVMAGALLDAAQNLLSKGIHPTTISESFQSAAAEAEKILDEMSSPVDLSNDALLNKMATTSLNSKVVSQHSWLLAPMAVNAVKKIINSENDSNVNLKMIKIIKKMGDTVEESELIEGALIDQKTMGRGAPTRIEKAKIGLIQFQISPPKTDMENQVIITDYAQMDRALKEERQYLLEICKQIKAAGCNVLLIQKSILRDAVNELALHFLAKMKIMCIKDIEREDIEFYSRILGCRPVASVDHFNADALGYADLVEEIPTGGDGKVIKVTGVQNPGHAVSILLRGSNKLVLEEADRSIHDALCVIRCLVKKKALLPGGGAPEMEIAVKLRNLAQTQHGATQYCWRAFADALELIPYTLAENAGLSPIHTVTELRNNHANGNSSYGVNVRKGYVTDMVEEDVVQPLLVTASAIKQASECVRSILKIDDIVMAVR	not soluble
MYSFTTERLMIRPLRAEDEVFYCQLYADSKVMENIGKTITKKQARQWFKRALKALSSPKKSVVTLAIVKKSTNNIIGIQALSWQNTTQILKPCSQKLVQAEIGIMLTTKAQGQGFGKEAIKALMAYGFVYHSLDRINAFYAKKNLASERLFNSLH	not soluble
MAHHHHHHMVAPSGRTGRRTTRRRTLHTGAGTTVTQRSARLPSRLRRVSTLKTSRAPSCLSTSARLRLFRRRRTCWRCWSERASPYQSSATTPSSPPETAVCAWCRTALRTSSSRAPPWRYLACPSSPTAACAMPARAMWSLSSTTRTTARFASRPPTAICRTATTAPTSRATARTRKPSRTSTLTPRHASCTAASTARAASASTSTRRTSTSARLAAAGARFPPFMNWRRRTTICPFLSYAPSGSCTWAMQTRTTTCASSRLRGQRR	soluble
ICNKYKNINVNMKKNNDDTWTDLVKNSSDINKGVLLPPRRKNLFLKIDESDICKYKRDPKLFKDFIYSSAISEVERLKKVYGEAKTKVVHAMKYSFADIGSIIKGDDMMENNSSDKIGKILGDGVGQNEKRKKWWDMNKYHIWESMLSGYKHAYGNISENDRKMLDIPNNDDEHQFLRWFQEWTENFCTKRNELYENMVTACNSAKCNTSNGSVDKKECTEACKNYSNFILIKKKEYQSLNSQYDMNYKETKAEKKESPEYFKDKCNGECSCLSEYFKDETRWKNPYETLDDTEVKNNCMCK	soluble
MGSSHHHHHHSSGLVPRGSHMSSTMSADQSNRARPVIRIKENPEDFTVEEVADIPKSDNGKYTIIKAEIIDWDTNRIVEEIASALRISRKRISYAGTKDKRARKIQYFCINAPVDVSVLAFKGFRIIDRFRSDHYLRLGDLTANHFRIRFQGASDDYIEQRYEKMMECGGFPNYFGQQRFGSRRRNTHDVGRLIVTGRYEDAVRLYLYDERYDIEDYRREFIETLDYNRALEKFPRTLRFERSIIGYYAQHHTFKGAFDALPKNLSIMFVHAYQSYLFNRMLSLRIEKYGLNRAIPGDTAFPVDRYFNPDKSRPVEVNEVNVDTINQLIERDRLRVALPIIGSEVGPDQSDFGEIEKKILEEEHVDRSMFRNSEYPHLSSTGDRRIVSAKPVDFSVSNSVMDFTLGRGIYATTLISTFGDLVDFDAESDGF	soluble
MRPMGHAESVMSRFAHRVKSRRSWKDQGLRAFLKAMVARIDGIRWRKGPLEAEEPQSAVSASTKSKRIEQAKRKAGRLWADVVRQNLPCLQQSSGTPIHQALSALRDGGWV	not soluble
MGSDKIHHHHHHQEGRSDPLEGFNRTMFNFNYDVLDPYVVRPAAVAWRDYVPTPARNGLGNFFNNLEEPATMVNYFVEGKPYKAMIHFNRFFLNTLLGMGGLIDVASMANPKLAKEESRRFGSTLGNYGVGYGPYVVLPGYGSVTPREDGGGVADTLYPMLSYLTFWMSAGKWAIEGLETRAQLLDSDGLLRNSSDPYLMIREAYFQRHDFLASDGQIAPQQNPNAAAIEDSLDEIDSAK	not soluble
MSLARKKRNPDAEKLAESILNAYQPESVDDMQDALKDVFGPLFEKMLQGELNNHLGYDAHSKEPKEHDNRRNGYGTKTLKTSFGEVAIDVPRDREASFEPELIPKRKRDVSDIEGKVLSMYARGMSQRDIAATVEAIYGFDISHEMISDITDAVLPELEEWQARPLAKCYAFLFVDCMYVTLRENYEAKEYAVYTILGYDLKGNKEILGLWLNQTESKNRWMQVFDELKARGVEDVFFISMDGVSGLEEGAKAIFPSVIVQRCIVHLVRNALRYIPSKDYKEVCRDMKKFYGASSLNAAHAAFGSFQNRWSHYSGAVDVWKRNFAHVEQLFDYGSAIRKIMYTTNAVESVHSSFRKVTKKGAFSNENALLKLLYLRTKELHAKWSGGRIQNWAMVLKQLMINETFSSRMKSMRFTFRNNGRFIQLCVRSKEGHHHHHH	soluble
MSTSSHTVLLIQTSPRLDSRTWGDYESVTDALDALCKMFEDFLSKKSAAPVTYDVSQVYEFLDKLSDVSMMIFNRETGQYIGRTRAWIKQQVYEMMRGRCQHPEGGEKVIVGY	not soluble
KDFCASIHRNDSLSLTHELEPFIDSMKNKTGVYVLEDGGGSLITRAWLSEYAEETIDIQYFIFSADNVGLIACDYLVRAADRGVKVRILIDDILVEAGVHEILTLDSHENIEIKIYNPGINLGKNIFNKIGKFTTDFRGANQRMHNKTFIVDHKVVITGGRNIADEYFDYDHEYNFRDRDVLLIGKTATDVQQSFESFWVDALSIPITGLVKEDDVTYTDTSRFERLHQYACNPDNFWPQVRKRISN	not soluble
MAHHHHHHMSTRRLMHTMIRVGDLDRSIKFYTEALGMRLLRKWDCPEDKFTLVFLGYGTESETAVLELTYNYGQSEYKHGDAYGHIAIGVEDVNEEIARLKKMNVPIDYESEDGFMAFIVDPDGYYIELLNTERMLEKSREQMNEQGTA	soluble
QALEYSGTKRFVYVIDENNKATRQEVLLGARVDNEVVIESGVEIGDKIVVQGIVNMRDGVEVKEIVAPLKANTTDVTRNDSESVEEEN	not soluble
MGSDKIHHHHHHVNYIKRAMENTFLRLAKEFPALLLTGPRQTGKTTMLQKLAAEEKIGRNYVTLDDLTERQMAKNDPKMFLQIHKPPVFIDEVQYAPELFSYIKIHIDRHHRPGDFWLTGSQVFKLMDGVQESLAGRVGLLHMSPMSQAESCGADTTPFILDLEQLTRRVRERNPLDTPALYERIFRGGMPALVSGQYTDHWALYSSYISTYLDRDVKEISGTINSLRFMDFITAAAALCGQMLNYKTIADAAGIDQLTAKGWLGILERLGIIFYLHPYANNMLKRMVTKPKLYFYDCGLVAYLTKWSDSATLMNGAMSGAILENFVVSEIIKSYQNYGREAFIYYYRDKDTKEIDILLEDSGKLYPMEIKKTATPQKQLTRVFNVIDKATLERGTGAVLCTTDRLSAFDSENLIIPIWGI	not soluble
GMSIIDLTKLEQKVATMWDSILTNSPFIHEVLDGKATKALYAIYMTETYHYTKHNAKNQALVGIMGKDLPGKYLSFCFHHAHEEAGHELMALSDIASIGFDREDVLSSKPLPATETLIAYLYWISATGNPVQRLGYSYWAENVYGYIDPVLKAIQSTLDLTPQSMKFFIAHSKIDAKHAEEVNEMLHEVCKTQEDVDSVVAVMENSLVLTARILDDVWKEYQLFQSGASDRYAFLRDNA	soluble
GPGSMAFHPRDAFILHQEQIQRYNEGDEVDTSAEQKVQIELQRLTDSESTVTIAFSHEDHTLGNPLRHVLMQNREVTSAGYAIPHPLEAKMLLHVQSTDYAVEAVAEGLERLASICDETLQSFEDCMHRMRCEGAKQE	not soluble

Reference: the DeepSol protein solubility set
